Test results published in patent US7217570B2, “Organotypic intestinal culture and methods of use thereof” (The Wistar Institute of Anatomy and Biology, priority 2001, dated 2007).

B1: Keratinocyte growth factor (protein, UniProt P21781 32-194, looked up)
Fibroblast growth factor 7: CNDMTPEQMATNVNCSSPERHTRSYDYMEGGDIRVRRLFCRTQWYLRIDKRGKVKGTQEMKNNYNIMEIRTVAVGIVAIKGVESEFYLAMNKEGKLYAKKECNEDCNFKELILENHYNTYASAKWTHNGGEMFVALNQKGIPVRGKKTKKEQKTAHFLPMAIT
notes: Keratinocyte growth factor (R&D Systems) at 20 ng/ml
B2: epidermal growth factor (protein, UniProt P01133 23-1207, looked up)
Pro-epidermal growth factor: PQHWSCPEGTLAGNGNSTCVGPAPFLIFSHGNSIFRIDTEGTNYEQLVVDAGVSVIMDFHYNEKRIYWVDLERQLLQRVFLNGSRQERVCNIEKNVSGMAINWINEEVIWSNQQEGIITVTDMKGNNSHILLSALKYPANVAVDPVERFIFWSSEVAGSLYRADLDGVGVKALLETSEKITAVSLDVLDKRLFWIQYNREGSNSLICSCDYDGGSVHISKHPTQHNLFAMSLFGDRIFYSTWKMKTIWIANKHTGKDMVRINLHSSFVPLGELKVVHPLAQPKAEDDTWEPEQKLCKLRKGNCSSTVCGQDLQSHLCMCAEGYALSRDRKYCEDVNECAFWNHGCTLGCKNTPGSYYCTCPVGFVLLPDGKRCHQLVSCPRNVSECSHDCVLTSEGPLCFCPEGSVLERDGKTCSGCSSPDNGGCSQLCVPLSPVSWECDCFPGYDLQLDEKSCAASGPQPFLLFANSQDIRHMHFDGTDYGTLLSQQMGMVYALDHDPVENKIYFAHTALKWIERANMDGSQRERLIEEGVDVPEGLAVDWIGRRFYWTDRGKSLIGRSDLNGKRSKIITKENISQPRGIAVHPMAKRLFWTDTGINPRIESSSLQGLGRLVIASSDLIWPSGITIDFLTDKLYWCDAKQSVIEMANLDGSKRRRLTQNDVGHPFAVAVFEDYVWFSDWAMPSVMRVNKRTGKDRVRLQGSMLKPSSLVVVHPLAKPGADPCLYQNGGCEHICKKRLGTAWCSCREGFMKASDGKTCLALDGHQLLAGGEVDLKNQVTPLDILSKTRVSEDNITESQHMLVAEIMVSDQDDCAPVGCSMYARCISEGEDATCQCLKGFAGDGKLCSDIDECEMGVPVCPPASSKCINTEGGYVCRCSEGYQGDGIHCLDIDECQLGEHSCGENASCTNTEGGYTCMCAGRLSEPGLICPDSTPPPHLREDDHHYSVRNSDSECPLSHDGYCLHDGVCMYIEALDKYACNCVVGYIGERCQYRDLKWWELRHAGHGQQQKVIVVAVCVVVLVMLLLLSLWGAHYYRTQKLLSKNPKNPYEESSRDVRSRRPADTEDGMSSCPQPWFVVIKEHQDLKNGGQPVAGEDGQAADGSMQPTSWRQEPQLCGMGTEQGCWIPVSSDKGSCPQVMERSFHMPSYGTQTLEGGVEKPHSLLSANPLWQQRALDPPHQMELTQ
modifications: Pro-epidermal growth factor
notes: human recombinant epidermal growth factor (Sigma)

Tested on: enteric epithelial cells
Assay: Growth factor modulation of organotypic culture in reduced or modified media (Example 2)
Type: cell-based, human
Settings: growth factor added individually to base medium (MCDB 201/L15, transferrin, antibiotics)
Protocol: To determine the role of growth factors on proliferation of colonic epithelial cells, this growth medium was modified by changing combinations of growth factors and deleting serum. Keratinocyte growth factor (KGF, R&D Systems) at 20 ng/ml was also tested as part of 23 growth factor combinations. Total relative cell numbers of a specific type were counted as an average of all nuclei counts from a minimum of 3 randomly selected cross-sections of a reconstruct. Goblet cells were counted based on their typical morphology and positive Alcian staining in at least 3 randomly selected slides. Proliferation rates in % were established by counting the number of BrdU or Ki-67-positive nuclei per total epithelial cell nuclei of section. Apoptotic cells were counted in H&E-stained sections (Vagunda, V. et al. 2000 Anal. Quant. Cytol. Histol., 22:307–310). Apoptotic bodies and nuclei were determined according to the size and numbers of the fragments. Apoptosis was calculated as percentage of total nuclei per section (Kerr, J F. et al. 1972 Br. J. Cancer, 26:239–257) To define the role of critical growth factors supporting growth and differentiation of the enteric epithelial cells, an organotypic culture, such as that described in Example 1, was grown in medium in which the number of supplements was reduced. […]

Molecule | epithelial cell proliferation
B1 | not supported
B2 | not supported
